Measured values: PMC5999986

Molecular target: DosRK182R (Mycobacterium tuberculosis, UniProt P9WMF9 1-217, K182R)
Assay: EMSA; 4, 8, 16 uM protein; 20 mM MgCl2; […]; ITC: 20 mM Tris pH 8.0, 200 mM NaCl, 25 C, […]
Details: protein: recombinant; tags: His6 (pET28a); chain copies: 2; label: none (ethidium bromide stain); blunt

B1: 20-bp DosR regulon consensus DNA (EM1/EM2) (dsDNA)
DNA 1: TTGGGGACTAAAGTCCCTAA
DNA 2: TTAGGGACTTTAGTCCCCAA
B1: binds.
